Source: patent publication US20250230254A1 (Janssen / Centocor, published 2025)

Experiments:
KLK2 [1] = biological target: T1, KLK2 (UniProt P20151 25-261, limits assumed); experiment: cell-based or functional assay
KLK2 [2] = biological target: T1, KLK2; experiment: cell-based or functional assay; remark: listed apart in the source

T1 sequence (P20151 25-261 limits assumed): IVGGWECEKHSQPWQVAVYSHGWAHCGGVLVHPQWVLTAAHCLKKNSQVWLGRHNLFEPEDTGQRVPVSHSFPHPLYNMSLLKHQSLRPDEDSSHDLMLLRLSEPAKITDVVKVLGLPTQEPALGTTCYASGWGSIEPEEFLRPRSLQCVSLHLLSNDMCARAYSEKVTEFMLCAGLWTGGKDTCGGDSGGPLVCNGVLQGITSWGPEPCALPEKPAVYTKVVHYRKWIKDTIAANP

Binder | ADCC activity, percent cell killing of VCaP cells by PBMC (KLK2 [1]) | ADCC killing EC50 (M), PBMC effector cells on VCaP cells, 48 hours (KLK2 [2])
KL2B870 (KL2B30 in hIgG1-RE) (antibody) heavy: not shown light: DIQMTQSPSFLSASVGDRVTITCRASQGISSYLAWYQQKPGKAPKFLIYAASTLQSGVPSRFSGSGSGTEFTLTISSLQPEDFATYYCQQLNSYPLTFGGGTKVEIKRTVAAPSVFIFPPSDEQLKSGTASVVCLLNNFYPREAKVQWKVDNALQSGNSQESVTEQDSKDSTYSLSSTLTLSKADYEKHKVYACEVTHQGLSSPVTKSFNRGEC | ~73% | 1e-09 M
KL2B872.CLF (antibody, human IgG1, kappa, low fucosylation of the Fc oligosaccharide (less than 10% fucosylation)) heavy: not shown light: DIQMTQSPSFLSASVGDRVTITCRASQGISSYLAWYQQKPGKAPKFLIYAASTLQSGVPSRFSGSGSGTEFTLTISSLQPEDFATYYCQQLNSYPLTFGGGTKVEIKRTVAAPSVFIFPPSDEQLKSGTASVVCLLNNFYPREAKVQWKVDNALQSGNSQESVTEQDSKDSTYSLSSTLTLSKADYEKHKVYACEVTHQGLSSPVTKSFNRGEC | ~85% | 4.12e-10 M
KL2B870.CLF (antibody, human IgG1, kappa, low fucosylation of the Fc oligosaccharide (less than 10% fucosylation)) heavy: not shown light: DIQMTQSPSFLSASVGDRVTITCRASQGISSYLAWYQQKPGKAPKFLIYAASTLQSGVPSRFSGSGSGTEFTLTISSLQPEDFATYYCQQLNSYPLTFGGGTKVEIKRTVAAPSVFIFPPSDEQLKSGTASVVCLLNNFYPREAKVQWKVDNALQSGNSQESVTEQDSKDSTYSLSSTLTLSKADYEKHKVYACEVTHQGLSSPVTKSFNRGEC | ~89% | 3.54e-10 M
